B1: variant 5-63 (Fc fusion)
VHH: EVQLVESGGGLVQPGGSLRLSCAASGFSLDYYDMGWFRQAPGKEREFVAALGWSGGSTDYADSVKGRFTISADNSKNTAYLQMNSLKPEDTAVYYCAAGNGGRYGIVERWGQGTLVTVSS
B2: variant 6-32 (Fc fusion)
VHH: EVQLVESGGGLVQPGGSLRLSCAASGFTLDYYDMGWFRQAPGKEREFVALISWSGGSTYYADSVKGRFTISADNSKNTAYLQMNSLKPEDTAVYYCATDFYGWGTRERDAFDIWGQGTLVTVSS
B3: variant 5-32 (Fc fusion)
VHH: EVQLVESGGGLVQPGGSLRLSCAASGFTPDNYAMGWFRQAPGKEREFVAALGWSGVTTYHYYADSVKGRFTISADNSKNTAYLQMNSLKPEDTAVYYCASDESDAANWGQGTLVTVSS
B4: variant 6-82 (Fc fusion)
VHH: EVQLVESGGGLVQPGGSLRLSCAASGSSLDAYGMGWFRQAPGKEREFVAAISWGGGSIYYADSVKGRFTISADNSKNTAYLQMNSLKPEDTAVYYCARLSQGMVALDYWGQGTLVTVSS
B5: variant 6-91 (Fc fusion)
VHH: EVQLVESGGGLVQPGGSLRLSCAASGRTFGNYAMGWFRQAPGKEREFVASISSSGVSKHYADSVKGRFTISADNSKNTAYLQMNSLKPEDTAVYYCVRFGSSWARDLDQWGQGTLVTVSS
B6: variant 5-38 (Fc fusion)
VHH: EVQLVESGGGLVQPGGSLRLSCAASGRTFSMHAMGWFRQAPGKERELVASISSQGRTNYADSVKGRFTISADNSKNTAYLQMNSLKPEDTAVYYCAAEVRNGSDYLPIDWGQGTLVTVSS
B7: variant 5-51 (Fc fusion)
VHH: EVQLVESGGGLVQPGGSLRLSCAASGRPNSINWMGWFRQAPGKERQFVATITPGGNTNYADSVKGRFTISADNSKNTAYLLMNSLKPEDTAVYYCAAAAGTTWYGTLYEYDWGQGTLVTVSS
B8: variant 6-13 (Fc fusion)
VHH: EVQLVESGGGLVQPGGSLRLSCAASGLTFNDYAMGWFRQAPGKEREFVAHIPRSTYSPYYADSVKGRFTISADNSKNTAYLQMNSLKPEDTAVYYCAFLVGPQGVDHGAFDVWGQGTLVTVSS
B9: variant 6-24 (Fc fusion)
VHH: EVQLVESGGGLVQPGGSLRLSCAASGFTLDYYAMGWFRQAPGKEREFVAAINWSGDNTHYADSVKGRFTISADNSKNTAYLQMNSLKPEDTAVYYCARAPFYCTTTKCQDNYYYMDVWGQGTLVTVSS
B10: variant 6-42 (Fc fusion)
VHH: EVQLVESGGGLVQPGGSLRLSCAASGDTYGSYWMGWFRQAPGKEREFVAVITSGGSTNYADSVKGRFTISADNSKNTAYLQMNSLKPEDTAVYYCTHVQNSYYYAMDVWGQGTLVTVSS
B11: variant 6-22 (Fc fusion)
VHH: EVQLVESGGGLVQPGGSLRLSCAASGRTFSEVVMGWFRQAPGKEREFVATIHSSGSTSYADSVKGRFTISADNSKNTAYLQMNSLKPEDTAVYYCVRVTSDYSMDSWGQGTLVTVSS
B12: variant 6-6 (Fc fusion)
VHH: EVQLVESGGGLVQPGGSLRLSCAASGTTLDYYAMGWFRQAPGKERELVAAISWSGGSTAYADSVKGRFTISADNSKNTAYLQMNSLKPEDTAVYYCAREDYYDSSGYSWGQGTLVTVSS
B13: variant 5-8 (Fc fusion)
VHH: EVQLVESGGGLVQPGGSLRLSCAASGRPFSEYTMGWFRQAPGKEREFVSSIHWGGRGTNYADSVKGRFTISADNSKNTAYLQMNSLKPEDTAVYYCAAELHSSDYTSPGAYAWGQGTLVTVSS
B14: 10-51 (VHH)
VHH: EVQLVESGGGLVQPGGSLRLSCAASGRFFSTRVMGWFRQAPGKEREFVARIWPGGSTYYADSVKGRFTISADNSKNTAYLQMNSLKPEDTAVYYCARDRGIFGVSRWGQGTLVTVSS
B15: 9-10 (VHH)
VHH: EVQLVESGGGLVQPGGSLRLSCAASGRMFSSRSMGWFRQAPGKEREFVALINRSGGSQFYADSVKGRFTISADNSKNTAYLQMNSLKPEDTAVYYCAARRWIPPGPIWGQGTLVTVSS
B16: 10-1 (VHH)
VHH: EVQLVESGGGLVQPGGSLRLSCAASGLSSPPFDDFPMGWFRQAPGKEREFVSSIYSDDGDSMYADSVKGRFTISADNSKNTAYLQMNSLKPEDTAVYYCARQTFDFWSASLGGNFWYFDLWGQGTLVTVSS
B17: 10-60 (VHH)
VHH: EVQLVESGGGLVQPGGSLRLSCAASGIPASMYLGWFRQAPGKEREFVAAITSGGRTSYADSVKGRFTISADNSKNTAYLQMNSLKPEDTAVYYCAKRKKRGPLWFGGGGWGYWGQGTLVTVSS
B18: 10-29 (VHH)
VHH: EVQLVESGGGLVQPGGSLRLSCAASGRTFTSYRMGWFRQAPGKEREFVAEISSSGGYTYYADSVKGRFTISADNSKNTAYLQMNSLKPEDTAVYYCARVGPLRFLAQRPRLRPDYWGQGTLVTVSS
B19: 10-6 (VHH)
VHH: EVQLVESGGGLVQPGGSLRLSCAASGTTLTFRIMGWFRQAPGKEREFVPAISSTGLASYTDSVKGRFTISADNSKNTAYLQMNSLKPEDTAVYYCSKDRAPNCFACCPNGFDVWGQGTLVTVSS
B20: 9-6 (VHH)
VHH: EVQLVESGGGLVQPGGSLRLSCAASGRTFSRFAMGWFRQAPGKEREFVAAIRWSGGRTVYADSVKGRFTISADNSKNTAYLQMNSLKPEDTAVYYCAIEPGTIRNWRNRVPFARGNFGWGQGTLVTVSS
B21: 10-5 (VHH)
VHH: EVQLVESGGGLVQPGGSLRLSCAASGRSLGIYRMGWFRQAPGKEREFVAAITSGGRKNYADSVKGRFTISADNSKNTAYLQMNSLKPEDTAVYYCAKRTIFGVGRWLDPWGQGTLVTVSS
B22: 10-2 (VHH)
VHH: EVQLVESGGGLVQPGGSLRLSCAASGGTFSSYSMGWFRQAPGKEREFVSAISWIIGSGGTTNYADSVKGRFTISADNSKNTAYLQMNSLKPEDTAVYYCTAGAGDSWGQGTLVTVSS
B23: 10-56 (VHH)
VHH: EVQLVESGGGLVQPGGSLRLSCAASGHTFRNYGMGWFRQAPGKEREFVAAITSSGSTNYADSVKGRFTISADNSKNTAYLQMNSLKPEDTAVYYCATVPPPRRFLEWLPRRLTYTWGQGTLVTVSS
B24: 10-11 (VHH)
VHH: EVQLVESGGGLVQPGGSLRLSCAASGRNFRRNSMGWFRQAPGKEREFVAGISWSGARTHYADSVKGRFTISADNSKNTAYLQMNSLKPEDTAVYYCARVSRRPRSPPGYYYGMDVWGQGTLVTVSS
B25: 9-3 (VHH)
VHH: EVQLVESGGGLVQPGGSLRLSCAASGRTFSRYAMGWFRQAPGKEREFVAAISRSGKSTYYADSVKGRFTISADNSKNTAYLQMNSLKPEDTAVYYCAASSVFSDLRYRKNPKWGQGTLVTVSS
B26: 10-30 (VHH)
VHH: EVQLVESGGGLVQPGGSLRLSCAASGRTFSSFRFRAMGWFRQAPGKEREFVALIFSGGSTYYADSVKGRFTISADNSKNTAYLQMNSLKPEDTAVYYCAREWGRWLQRGSYWGQGTLVTVSS
B27: 10-19 (VHH)
VHH: EVQLVESGGGLVQPGGSLRLSCAASGRTFRSYGMGWFRQAPGKEREFVASISRSGTTMYADSVKGRFTISADNSKNTAYLQMNSLKPEDTAVYYCARRGLLQWFGAPNSWFDPWGQGTLVTVSS
B28: 10-43 (VHH)
VHH: EVQLVESGGGLVQPGGSLRLSCAASGRTFRRYHMGWFRQAPGKEREFVAAITSGGRTNYADSVKGRFTISADNSKNTAYLQMNSLKPEDTAVYYCTTDGLRYFDWFPWASAFDIWGQGTLVTVSS
B29: 10-9 (VHH)
VHH: EVQLVESGGGLVQPGGSLRLSCAASGIPFRSRTMGWFRQAPGKEREFVAGITGSGRSQYYADSVKGRFTISADNSKNTAYLQMNSLKPEDTAVYYCARGARIFGSVAPWRGGNYYGMDVWGQGTLVTVSS
B30: 10-44 (VHH)
VHH: EVQLVESGGGLVQPGGSLRLSCAASGRTFRRYTMGWFRQAPGKEREFVAVISWSGGSTKYADSVKGRFTISADNSKNTAYLQMNSLKPEDTAVYYCARKGRWSGMNVWGQGTLVTVSS
B31: 9-2 (VHH)
VHH: EVQLVESGGGLVQPGGSLRLSCAASGSFSIAAMGWFRQAPGKEREFVATINYSGGGTYYADSVKGRFTISADNSKNTAYLQMNSLKPEDTAVYYCAAVNTFDESAYAAFACYDVVWGQGTLVTVSS
B32: 10-17 (VHH)
VHH: EVQLVESGGGLVQPGGSLRLSCAASGRTFSIYAMGWFRQAPGKEREFVARITRGGITKYADSVKGRFTISADNSKNTAYLQMNSLKPEDTAVYYCARGLGWLLGYYWGQGTLVTVSS

biological target: SARS-CoV-2 spike on live SARS-CoV-2 virus (SARS-CoV-2, UniProt P0DTC2 14-1273); experiment: cell-based or functional assay

Binder | EC80 [µg/mL]
B1 | 14.2
B2 | 60.6
B3 | 180
B4 | 108
B5 | 240
B6 | 1.5
B7 | 388
B8 | 25.7
B9 | 31.4
B10 | 0.734
B11 | 103
B12 | 24.4
B13 | 15.8

biological target: T1, Acro SARS-CoV-2 (COVID-19) S1 protein (SARS-CoV-2, UniProt P0DTC2 16-685); experiment: SPR
T1 construct: also called SARS-CoV-2 S1

Binder | Kd [nM]
B1 | 10.5
B2 | 27.2
B3 | 22.4
B4 | 7.1
B7 | 25.5
B8 | 25.3
B9 | 29.9
B10 | 10.1
B11 | 25.6
B12 | 6.4

biological target: SARS-CoV-2 membrane protein on expressing cells (SARS-CoV-2, UniProt P0DTC5 1-222); experiment: not given

Binder | MFI Ratio
B14 | 1.47
B15 | 1.52
B16 | 1.08
B17 | 1.14
B18 | 1.48
B19 | 1.08
B20 | 1.47
B21 | 1.59
B22 | 1.25
B23 | 1.39
B24 | 1.56
B25 | 1.61
B26 | 1.57
B27 | 1.54
B28 | 1.55
B29 | 1.61
B30 | 1.46
B31 | 1.3
B32 | 1.59

Source: patent US20210355194A1 (TWIST BIOSCIENCE, published 2021)
